Experiment [1] addresses GhWRKY41 full length as GhWRKY41-NLuc and GhWRKY41-CLuc, expressed in cotton protoplasts (Gossypium hirsutum). In words: split reporter.
Experiment [2] addresses GhWRKY41-Myc fusion protein (Gossypium hirsutum). Put plainly: immunoprecipitation and Western blot.

In experiment [1], “GhWRKY41 full length as GhWRKY41-NLuc and GhWRKY41-CLuc, expressed in cotton protoplasts (natural protein)” gave a fold luciferase activity (after V. dahliae supernatant) of 23 fold, a fold luciferase activity (after chitin solution) of 27 fold and a fold luciferase activity over the negative control (normal condition) of 10 fold.

“GhWRKY41-Myc fusion protein (natural protein)”: the stoichiometry N in experiment [2] was 2.

Source of the values: PMC10106861.
